Results on 94 variants are retold here after the supplement of paper PMC10567573.

B1: SCNN1D (parent)
chain: FYRLYQDLETHRLPCTSRCPRPCR
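Further: lentivirally expressed fusions sorted by FACS into six bins by GFP to DsRed ratio, PSI derived from sequencing read proportions per bin multiplied by bin number.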

The series covers variants of B1. Briefly: protein stability index of a GFP-peptide fusion (GPS, HEK-293T) (PSI 1-6); higher = more stable. The conditions noted are these: c terminus: a fixed tail appended.
For the variant FYRLYQDLETHRLPCTSRFPRPCR, the protein stability index was found to be 2.65.
As to FYRLYQDLETHRLPCTSRDPRPCR, the protein stability index was found to be 2.03.
Take FYRLYQDLETHRLPCTSRWPRPCR: the protein stability index was found to be 3.18.
Under FYRLYQDLETHRLPCTSRSPRPCR stands 2.09; under FYRLYQDLETHRLPCTSRVPRPCR, 2.1.
Turning to FYRLYQDLETHRLPCTSRAPRPCR, the protein stability index was found to be 1.94.
Consider FYRLYQDLETHRLPCTSRKPRPCR, for which the protein stability index stood at 1.96.
Under FYRLYQDLETHRLPCTSRQPRPCR stands 2.59; under FYRLYQDLETHRLPCTSRHPRPCR, 1.84.
FYRLYQDLETHRLPCTSRRPRPCR: the protein stability index was found to be 2.21.
Regarding FYRLYQDLETHRLPCTSRIPRPCR, the protein stability index came to 2.64.
Under FYRLYQDLETHRLPCTSRNPRPCR stands 3.89; under FYRLYQDLETHRLPCTSRMPRPCR, 2.06; under FYRLYQDLETHRLPCTSRYPRPCR, 1.88.
Turning to FYRLYQDLETHRLPCTSRLPRPCR, the protein stability index came to 2.68.
Under FYRLYQDLETHRLPCTSREPRPCR stands 2.66.
On to FYRLYQDLETHRLPCTSRGPRPCR, for which the protein stability index was 2.32.
Under FYRLYQDLETHRLPCTSRCCRPCR stands 2.51; under FYRLYQDLETHRLPCTSRCHRPCR, 2.18; under FYRLYQDLETHRLPCTSRCLRPCR, 2.27.
Consider FYRLYQDLETHRLPCTSRCARPCR, for which the protein stability index came out at 1.98.
On to FYRLYQDLETHRLPCTSRCDRPCR, for which the protein stability index amounted to 1.81.
Under FYRLYQDLETHRLPCTSRCERPCR stands 1.32; under FYRLYQDLETHRLPCTSRCYRPCR, 1.44; under FYRLYQDLETHRLPCTSRCFRPCR, 2.83.
Under FYRLYQDLETHRLPCTSRCSRPCR stands 1.83.
Under FYRLYQDLETHRLPCTSRCGRPCR stands 1.95; under FYRLYQDLETHRLPCTSRCTRPCR, 2.88; under FYRLYQDLETHRLPCTSRCKRPCR, 2.57.
As to FYRLYQDLETHRLPCTSRCIRPCR, the protein stability index amounted to 2.22.
Under FYRLYQDLETHRLPCTSRCNRPCR stands 2.13.
Under FYRLYQDLETHRLPCTSRCRRPCR stands 2.07; under FYRLYQDLETHRLPCTSRCPRICR, 1.72.
Under FYRLYQDLETHRLPCTSRCPRMCR stands 1.5; under FYRLYQDLETHRLPCTSRCPRGCR, 2.15.
As for FYRLYQDLETHRLPCTSRCPRECR, the protein stability index came to 2.27.
Turning to FYRLYQDLETHRLPCTSRCPRHCR, the protein stability index amounted to 2.38.
Under FYRLYQDLETHRLPCTSRCPRKCR stands 2.18; under FYRLYQDLETHRLPCTSRCPRQCR, 2.5.
Under FYRLYQDLETHRLPCTSRCPRCCR stands 3.11.
Under FYRLYQDLETHRLPCTSRCPRFCR stands 1.8.
Turning to FYRLYQDLETHRLPCTSRCPRNCR, the protein stability index is 2.72.
As to FYRLYQDLETHRLPCTVRCPRPCR, the protein stability index came to 4.43.
Under FYRLYQDLETHRLPCTIRCPRPCR stands 1.85; under FYRLYQDLETHRLPCTRRCPRPCR, 2.56; under FYRLYQDLETHRLPCTTRCPRPCR, 2.61.
Regarding FYRLYQDLETHRLPCTLRCPRPCR, the protein stability index is 1.5.
On to FYRLYQDLETHRLPCTWRCPRPCR, for which the protein stability index is 1.02.
As for FYRLYQDLETHRLPCTYRCPRPCR, the protein stability index came out at 2.09.
Turning to FYRLYQDLETHRLPCTCRCPRPCR, the protein stability index worked out at 1.65.
Under FYRLYQDLETHRLPCTFRCPRPCR stands 1.75; under FYRLYQDLETHRLPCTKRCPRPCR, 1.96.
Take FYRLYQDLETHRLPCTQRCPRPCR: the protein stability index worked out at 2.45.
For the variant FYRLYQDLETHRLPCTERCPRPCR, the protein stability index was 2.43.
For FYRLYQDLETHRLPCTMRCPRPCR, the protein stability index came to 1.86.
For the variant FYRLYQDLETHRLPCTNRCPRPCR, the protein stability index amounted to 2.15.
Under FYRLYQDLETHRLPCTHRCPRPCR stands 2.33; under FYRLYQDLETHRLPCTGRCPRPCR, 1.96; under FYRLYQDLETHRLPCTPRCPRPCR, 2.46.
Under FYRLYQDLETHRLPCTARCPRPCR stands 2.46; under FYRLYQDLETHRLPCTSRCPVPCR, 1.63.
For FYRLYQDLETHRLPCTSRCPFPCR, the protein stability index worked out at 1.96.
Under FYRLYQDLETHRLPCTSRCPPPCR stands 2.26; under FYRLYQDLETHRLPCTSRCPHPCR, 3.38.
Take FYRLYQDLETHRLPCTSRCPDPCR: the protein stability index turned out to be 1.83.
Under FYRLYQDLETHRLPCTSRCPQPCR stands 3.16.
In the case of FYRLYQDLETHRLPCTSRCPTPCR, the protein stability index is 2.1.
Under FYRLYQDLETHRLPCTSRCPLPCR stands 2.21; under FYRLYQDLETHRLPCTSRCPGPCR, 2.71; under FYRLYQDLETHRLPCTSRCPYPCR, 2.71.
Under FYRLYQDLETHRLPCTSRCPMPCR stands 1.25; under FYRLYQDLETHRLPCTSRCPEPCR, 2.22.
Under FYRLYQDLETHRLPCTSRCPWPCR stands 2.46; under FYRLYQDLETHRLPCTSRCPNPCR, 1.68; under FYRLYQDLETHRLPCTSRCPSPCR, 1.88.
FYRLYQDLETHRLPCQSRCPRPCR: the protein stability index was found to be 1.98.
Turning to FYRLYQDLETHRLPCLSRCPRPCR, the protein stability index turned out to be 1.82.
Regarding FYRLYQDLETHRLPCVSRCPRPCR, the protein stability index is 1.94.
Turning to FYRLYQDLETHRLPCESRCPRPCR, the protein stability index was found to be 2.5.
On to FYRLYQDLETHRLPCKSRCPRPCR, for which the protein stability index turned out to be 1.9.
Take FYRLYQDLETHRLPCHSRCPRPCR: the protein stability index was 1.49.
For the variant FYRLYQDLETHRLPCGSRCPRPCR, the protein stability index was found to be 1.93.
Under FYRLYQDLETHRLPCYSRCPRPCR stands 1.6; under FYRLYQDLETHRLPCCSRCPRPCR, 1.66; under FYRLYQDLETHRLPCISRCPRPCR, 1.62.
Under FYRLYQDLETHRLPCFSRCPRPCR stands 1.58; under FYRLYQDLETHRLPCDSRCPRPCR, 2.79.
With FYRLYQDLETHRLPCASRCPRPCR, the protein stability index came to 1.98.
Under FYRLYQDLETHRLPCRSRCPRPCR stands 1.46; under FYRLYQDLETHRLPCSSRCPRPCR, 1.82.
Turning to FYRLYQDLETHRLPCMSRCPRPCR, the protein stability index stood at 2.1.
For the variant FYRLYQDLETHRLPCWSRCPRPCR, the protein stability index came out at 1.51.
For the variant FYRLYQDLETHRLPCNSRCPRPCR, the protein stability index is 2.21.
On to FYRLYQDLETHRLPCPSRCPRPCR, for which the protein stability index came out at 1.11.
